Source: patent publication US20190078065A1, “MODIFIED DNA POLYMERASES” (SIGMA-ALDRICH CO. LLC, priority 2017, published 2019)
Each block holds one molecule with its values, some of them ahead of it.

Experiments:
Format in all cases: biochemical
[1] = tested on: 3′-O-carbamate or ester blocked nucleotides; assay: incorporation of 3′-O-blocked nucleotides, mutant vs. wild type polymerase, quantified by densitometry; conditions: for rates of incorporation of 3′-O-carbamate or ester blocked nucleotides as compared to wild type (WT) Hs PolM: densitometry
Excerpt: The incorporation of 3′-O-carbamate or ester blocked nucleotides by the PolM-loop1 chimera, Hs PolM-Lp1, or the truncated PolM-loop1 chimera, Hs tPolM-Lp1 was compared to that of wild type Hs PolM. The amount of incorporation was quantified by densitometry.

[2] = tested on: 3′-O-carbamate or ester blocked nucleotides; assay: template-free DNA synthesis reaction: incorporation of 3′-O-blocked nucleotides; conditions: template-independent, dNTP1, 2, 3, 5, 6 of Table 2; FIG. 5
Excerpt: The ability of the PolM-loop1 chimera, Hs PolM-Lp1, to incorporate 3′-O-blocked nucleotides was examined in a template-free DNA synthesis reaction.

[3] = tested on: 3′-O-blocked adenosine 5′-triphosphates; assay: incorporation of 3′-O-blocked adenosine, comparison with Bt TdT

rates of incorporation of 3′-O-carbamate or ester blocked nucleotides as compared to wild type (WT) Hs PolM [1]: significantly increased
B1: Hs PolM-Lp1: Homo sapiens PolM, Loop 1 domain swap (protein)
chain: MLPKRRRARVGSPSGDAASSTPPSTRFPGVAIYLVEPRMGRSRRAFLTGLARSKGFRVLDACSSEATHVVMEETSAEEAVSWQERRMAAAPPGCTPPALLDISWLTESLGAGQPVPVECRHRLEVAGPRKGPLSPAWMPAYACQRPTPLTHHNTGLSEALEILAEAAGFEGSEGRLLTFCRAASVLKALPSPVTTLSQLQGLPHFGEHSSRVVQELLEHGVCEEVERVRRSERYQTMKLFTQIFGVGVKTADRWYREGLRTLDDLREQPQKLTQQQKAGLQHHQDLSTPVLRSDVDALQQVVEEAVGQALPGATVTLTGGFRRGKLQGHDVDFLITHPKEGQEAGLLPRVMCRLQDQGLILYHQHQESTFEKLRLPSRKVDALDHFERSFCIFRLPQPPGAAVGGSTRPCPSWKAVRVDLVVAPVSQFPFALLGWTGSKLFQRELRRFSRKEKGLWLNSHGLFDPEQKTFFQAASEEDIFRHLGLEYLPPEQRNA
incorporation of 3′-O-carbamate or ester blocked nucleotides [2]: successfully incorporated

Fold increase Hs tPolM-Lp1 vs. Hs PolM-Lp1 ([1]; Blocking group 1): 2.2 Fold
Fold increase Hs tPolM-Lp1 vs. Hs PolM-Lp1 ([1]; Blocking group 2): 2.1 Fold
Fold increase Hs tPolM-Lp1 vs. Hs PolM-Lp1 ([1]; Blocking group 3): 2.0 Fold
Fold increase Hs tPolM-Lp1 vs. Hs PolM-Lp1 ([1]; Blocking group 5): 1.3 Fold
Fold increase Hs tPolM-Lp1 vs. Hs PolM-Lp1 ([1]; Blocking group 6 (artificial base-5SICS)): 3.0 Fold
Fold increase Hs tPolM-Lp1 vs. Hs PolM-Lp1 ([1]; Blocking group 6 (standard base)): 2.0 Fold
rates of incorporation of 3′-O-carbamate or ester blocked nucleotides as compared to wild type (WT) Hs PolM [1]: significantly increased
B2: Hs tPolM-Lp1: Homo sapiens PolM, Loop 1 domain swap and N-terminal truncation (Δ 1-108) (protein)
chain: MLGAGQPVPVECRHRLEVAGPRKGPLSPAWMPAYACQRPTPLTHHNTGLSEALEILAEAAGFEGSEGRLLTFCRAASVLKALPSPVTTLSQLQGLPHFGEHSSRVVQELLEHGVCEEVERVRRSERYQTMKLFTQIFGVGVKTADRWYREGLRTLDDLREQPQKLTQQQKAGLQHHQDLSTPVLRSDVDALQQVVEEAVGQALPGATVTLTGGFRRGKLQGHDVDFLITHPKEGQEAGLLPRVMCRLQDQGLILYHQHQESTFEKLRLPSRKVDALDHFERSFCIFRLPQPPGAAVGGSTRPCPSWKAVRVDLVVAPVSQFPFALLGWTGSKLFQRELRRFSRKEKGLWLNSHGLFDPEQKTFFQAASEEDIFRHLGLEYLPPEQRNA
increase in incorporation relative to Bt TdT [3]: 2.7 fold
